Results on 1 molecule are retold here after patent publication US9402875B2, “Amidated dopamine neuron stimulating peptide restoration of mitochondrial activity” (University of Kentucky Research Foundation, priority 2006, dated 2016).

In one experiment the test system is Erk1/2. The experiment in a line: ERK1/2 activation by western blot. The experiment is classed as cell-based. The settings on record: DNSP-11 0.1 uM or 1 uM or GDNF 50 ng/ml for 20 minutes. Here is the method:
MN9D and B65 cell were cultured in DMEM; 11995 (containing pyridoxol HCl; Sigma, St. Louis, Mo.) supplemented with 10% fetal bovine serum (HyClone, Logan, Utah), 50 U/mL penicillin and streptomycin with DNSP-11 (0.1 uM or 1 uM) or GDNF (50 ng/ml) for 20 minutes. The cells were then solubilized in Triton-X-100/glycerol lysis buffer and subjected to electrophoresis and western blotting as partially described previously (Jiang et al., Mol Biol Cell 14:859-70 (2003)). To detect phosphorylated Erk (#4377 Cell Signaling) and ERK (#4696 Cell Signaling) by immunoblotting, the cells were directly lysed in the sample loading buffer. Secondary IRDye 700X and IRDye800 conjugated, fluorescent antibodies (Rockland Inc.) were used to detect signal with Odyssey v3.0 scanning software. Several blots were analyzed to determine the linear range of the fluorescence signals, and quantifications were performed using densitometry analysis.

For another experiment, the target named is GAPDH (Homo sapiens, UniProt P04406). Put plainly: Gel filtration analysis of interaction between GAPDH and GDNF. The settings on record: equimolar solution, pre-equilibrated 1 h, Sephacryl S-200. Format: binding. Here is the method:
A gel filtration study was performed using a 120 mL Sephacryl S-200 column at a constant 1 mL/min flow rate. Individual 300 μM solutions of GAPDH (˜150 kDa; FIG. 14, dotted line) or GDNF (˜30 kDa; FIG. 14, dashed line) eluted at expected retention times for their sizes of 50 min (FIG. 14, star) and 64 min (FIG. 14, pound sign), respectively. When a pre-equilibrated (1 h), equimolar solution of GAPDH and GDNF was analyzed by gel filtration chromatography, two equally intense peaks were observed (FIG. 14, solid line) with retention times identical to the individual solutions.

Experiment [1] relates to MN9D dopaminergic cells. Put plainly: Caspase-3 activity assay, protection against 6-OHDA toxicity. Format: cell-based. The settings on record: 1 ng/mL for 1 hour before 100 μM 6-OHDA for 15 min; at 3 h. Here is the method:
(§1) MN9D Cell Cultures: The MN9D cell line has been described by Choi (1991) Brain Res. 552:67-76 and was a gift from Michael Zigmond. Cells were cultured in DMEM supplemented with 10% Fetal Bovine Serum (FBS, Hyclone), 50 U/mL penicillin and streptomycin. For experiments, the cells were plated on 24-well poly-D-lysine in DMEM with 1% (v/v) penicillin-streptomycin. The cells were grown at 37° C. in 5% CO2.
Caspase-3 Activity Assay in MN9D Cells: MN9D cells were plated to 100,000 cells/well. Cell cultures were exposed to DNSP-11 (1 ng/mL) or buffer for 1 hour prior to 15 min 100 μM 6-OHDA exposure. Caspase-3 activity was monitored after 3 hours by fluorescence (excitation/emission 496/520 nm) using the Enz Chek Caspase-3 kit. Protein levels of lysed cells were measured by BCA assay (BioRad) and normalized for every experiment. Data expressed as % control and repeated a minimum of 3 times.
To evaluate DNSP-11's neuroprotective properties, DNSP-11 was compared to GDNF in its protection against 6-OHDA-induced toxicity in the dopaminergic cell line, MN9D. MN9D dopaminergic cells were incubated for 1 hour with either citrate buffer (control), 1 ng/mL of DNSP-11 or GDNF prior to 100 μM 6-OHDA exposure for 15 min. Data are +SD, one-way ANOVA with Tukey's post hoc analysis, *p<0.05, **p<0.01, ***p<0.001 vs. control; #p<0.05, ##p<0.01, ###p<0.001 vs. 6-OHDA.

The next experiment concerns young and aged rats. The note with it: Hebert et al. 1996, 1997, cited from earlier work.
For experiment [2], the system named is E14 SD rat embryo primary dopaminergic neurons from the ventral mesencephalon. Format: cell-based. Here is the method:
DNSP-11 treatment of Mesencephalic Cells: Timed pregnant SD rats (Harlan) were used to obtain the ventral mesencephalon from E14 fetuses. The dissected tissue was collected in cold Neurobasal™ medium and rinsed twice with cold Dulbecco's PBS. The cells were chemically (TrypLE®) and mechanically dissociated to yield a single cell suspension. The solution was centrifuged at 169 g for 6 minutes and the pellet was resuspended in Dulbecco's Modified Eagle Medium (DMEM). Cells were plated in a 25 μL micro-island at a density of 4000 cells/μL on poly-D-lysine coated 24-well plates (Sigma). Following adherence, cells were supplemented with warm NEUROBASAL™ media containing 2 mM glutamine, 1×N2, and 100 units of penicillin/streptomycin. Neurotrophic compounds were added at each media addition, including initial plating and DIV 2. A dose response of the peptides (0.03 ng to 10 ng/mL) was added to a 24-well plate following media supplementation.
The neurotrophic effects of DNSP-11 were studied by comparing its effects to the well-known effects of GDNF on the maintenance of primary mesencephalic cell cultures from E14 SD rat embryos. E14 SD rat embryo primary dopaminergic neurons from the ventral mesencephalon were grown for 5 days in vitro and neurotrophic molecules were added at each media change, including initial plating and day 2. […] These effects were similar to those observed for GDNF in these cells, including an increase in the size of TH+ neurons, which was not observed for DNSP-11 (Table 4).
In Table 1, cell survival and morphological parameters were quantified for control (citrate buffer) and experimental (0.1 ng/ml GDNF or 0.1 ng/ml DNSP-11) conditions. For morphology, five fields per well (minimum of 15 cells/field; 3-4 independent experiments) were photographed at 20× magnification and quantified using a Bioquant Image Analysis System. […] Soma size was not increased by the addition of DNSP-11. A one-way ANOVA was used to test for significance among groups, followed by a Newman-Keuls post hoc analysis. Significance between control and experimental conditions was determined at *p<0.05 and **p<0.01.

In experiment [3] the test system is MN9D dopaminergic cells. Put plainly: TUNEL assay, protection against 6-OHDA toxicity. The settings on record: 1 ng/mL for 1 hour before 100 μM 6-OHDA for 15 min; at 24 h. Format: cell-based. The method, then:
as §1
Terminal dUTP Nick-End Labeling (TUNEL) Assay in MN9D Cells: After treatment with DNSP-11, MN9D cells were fixed and labelled to assess degenerative nuclear changes as indicated by the extent of high-molecular weight DNA strand breaks. DNA fragmentation was detected by using steptavidin-horseradish peroxidise conjugate followed by the substrate diaminobenzidine (DAB) generating a colored precipitate. Ratios between apoptotic and total cells were determined (4 random fields/well; 4 wells/ group). Experiments were repeated 3 times.
To evaluate DNSP-11's neuroprotective properties, DNSP-11 was compared to GDNF in its protection against 6-OHDA-induced toxicity in the dopaminergic cell line, MN9D. MN9D dopaminergic cells were incubated for 1 hour with either citrate buffer (control), 1 ng/mL of DNSP-11 or GDNF prior to 100 μM 6-OHDA exposure for 15 min. […]

Sequence of GAPDH (P04406 2-335 limits assumed, species assumed): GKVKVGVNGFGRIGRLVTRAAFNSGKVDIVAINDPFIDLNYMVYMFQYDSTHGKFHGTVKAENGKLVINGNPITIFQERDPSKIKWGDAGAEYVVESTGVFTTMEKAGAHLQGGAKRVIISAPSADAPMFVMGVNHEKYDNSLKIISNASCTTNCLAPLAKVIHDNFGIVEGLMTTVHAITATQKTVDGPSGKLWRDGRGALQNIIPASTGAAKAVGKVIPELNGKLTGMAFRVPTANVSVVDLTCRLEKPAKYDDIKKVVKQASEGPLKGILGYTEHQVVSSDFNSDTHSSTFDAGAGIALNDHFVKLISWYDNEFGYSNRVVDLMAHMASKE

B1: GDNF: mature glial cell line-derived neurotrophic factor, homodimer of 32-42 kDa, comparator (protein, listed as Homo sapiens)
chain: SPDKQMAVLPRRERNRQAAAANPENSRGKGRRGQRGKNRGCVLTAIHLNVTDLGLGYETKEELIFRYCSGSCDAAETTYDKILKNLSRNRRLVSDKVGQACCRPIAFDDDLSFLDDNLVYHILRKHSAKRCGCI
modifications: homodimer
notes: mature glial cell line-derived neurotrophic factor, homodimer of 32-42 kDa, comparator
Regarding B1, the “phosphorylation of Erk1/2 (ratio of phosphorylated to non-phosphorylated)” value with Erk1/2 (B65 cells) and in the experiment with Erk1/2 (MN9D cells) was “elevated levels of activated Erk” in each case. The “interaction with GAPDH in solution” value with GAPDH was “does not interact”. Further, the caspase-3 activity entry in the experiment with MN9D dopaminergic cells [1] was “significant reduction”. Also, in the experiment on young and aged rats, the “augmentation of evoked release of dopamine” value is “over 100%”. The “increase of basal levels of DOPAC” value in the experiment on young and aged rats (young and aged rats) was 20-25%. Also, the Cell survival result in experiment [2] (0.1 ng/ml, 5 days in vitro, control 100) is given as “*158 ± 12”. Moreover, in experiment [2] (0.1 ng/ml, controls 3.8 ± 0.2 (GDNF), 3.1 ± 0.2 (DNSP-11)), the “Average branches per neuron” value was “**4.7 ± 0.2”. The “Soma size (um^2)” value in experiment [2] (0.1 ng/ml, controls 171 ± 4 (GDNF), 168 ± 3 (DNSP-11)) amounted to 177 ± 4 um^2. Further, in experiment [2] (0.1 ng/ml, controls 242 ± 12 (GDNF), 222 ± 11 (DNSP-11)), the “Combined neurite length (um)” value was “**310 ± 16 um”. Moreover, the “TH+ neuron counts” value in experiment [2] (0.03, 0.1, 1.0 and 10 ng/ml) is recorded as “significantly increase”. Besides, the “percent of TUNEL positive cells” value in the experiment with MN9D dopaminergic cells [3] was “significant reduction”.
